Source: patent US20190167709A1

Target: CD20 (B-cell surface antigen CD20 on human Burkitt's B-cell non-Hodgkin's lymphoma Raji cells) (human) (UniProt P11836)
Assay: cell-based or functional assay

Sequence of UniProt P11836 (P11836 whole entry): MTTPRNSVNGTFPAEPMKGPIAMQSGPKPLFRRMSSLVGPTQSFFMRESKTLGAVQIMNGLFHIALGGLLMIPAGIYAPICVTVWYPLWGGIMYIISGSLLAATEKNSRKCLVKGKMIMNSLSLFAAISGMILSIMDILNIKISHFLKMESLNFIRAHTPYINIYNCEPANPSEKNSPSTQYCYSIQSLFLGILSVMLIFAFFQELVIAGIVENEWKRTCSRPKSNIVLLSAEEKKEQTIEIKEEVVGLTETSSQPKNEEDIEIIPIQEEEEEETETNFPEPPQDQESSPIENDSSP

Substance: Fab′-MORF1 conjugate (Fab′ fragment of the mouse anti-human CD20 IgG2a mAb 1F5 tethered to the 3′ end of morpholino MORF1 via a thioether bond)
- apoptosis induction, fold over untreated, Raji B-cells; 5 µM Fab′-MORF1 + P-MORF2/v3 (fold compared to untreated): 7
- apoptosis of Raji B-cells, P-MORF2/v10 against P-MORF2/v3 (0.5 µM Fab′, MORF1:MORF2 = 1:1 or 1:10) (fold against P-MORF2/v3): 2
- apoptotic cells, annexin V/PI staining, Raji B-cells; 1 µM Fab′-MORF1 and equimolar P-MORF2/v3: 40%
- apoptotic cells, fold over untreated, annexin V/PI staining, Raji B-cells; 1 µM Fab′-MORF1 and equimolar P-MORF2/v3 (fold compared to untreated): > 4
- apoptotic index (%), Annexin V/PI binding assay, Raji B-cells, 48 h; consecutive Fab′-MORF1 then Copolymer-MORF2, 0.5 µM, valence = 10, MORF1:MORF2 1:1: 50%
- apoptotic index (%), Annexin V/PI binding assay, Raji B-cells, 48 h; consecutive Fab′-MORF1 then Copolymer-MORF2, 1 µM, valence = 3, MORF1:MORF2 1:1: 37%
